20 molecules from patent US20260193376A1 (Novo Nordisk, published 2026) can be followed below.

The chains are these.
B1: one-armed (OA) mAb11-0962 (antibody, V domains shown)
VH: EVQLVESGGGLVQPGRSLRLSCAASKFTFHDYAMHWVRQAPGKGLEWVSGISWKGDIGGYADSVKGRFTISRDNAKNSLYLQMNSLRAEDTALYYCAKSYGSGSFYNAFDSWGQGTLVTVSS
VL: DIQMTQSPSTLSASVGDRVTITCRASQSISSWLAWYQQKPGKAPKFLIYKASKLDRGTPSRFSGSGSGTEFTLTISSLQPDDFATYYCLEYSSYIRTFGQGTKVEIK
B2: one-armed (OA) mAb11-1030 (antibody, V domains shown)
VH: EVQLVESGGGLVQPGRSLRLSCAASKFTFHDYAMHWVRQVPGKGLEWVSGISWKGDIGGYVDSVKGRFTISRDNAKNSLYLQMNSLRAEDTALYYCAKSYGSGSFYNAFDSWGQGTLVTVSS
VL: DIQMTQSPSTLSASVGDRVTITCRASQSISSWLAWYQQKPGKAPKFLIYKASKLDRGTPSRFSGSGSGTEFTLTISSLQPDDFATYYCLEYSSYIRTFGQGTKVEIK
B3: one-armed (OA) mAb11-1076 (antibody, V domains shown)
VH: EVQLVESGGGLVQPGRSLRLSCAASGFTFHDYAMHWVRQVPGKGLEWVSGISWKGDIGGYVDSVKGRFTISRDNAKNSLYLQMNSLRAEDTALYYCAKSYGSGSFYNAFDSWGQGTLVTVSS
VL: DIQMTQSPSTLSASVGDRVTITCRASQSISSWLAWYQQKPGKAPKFLIYKASKLERGTPSRFSGSGSGTEFTLTISSLQPDDFATYYCLEYSSYIRTFGQGTKVEIK
B4: one-armed (OA) mAb11-1259 (antibody, V domains shown)
VH: EVQLVESGGGLVQPGRSLRLSCAASGFTFHDYAMHWVRQVPGKGLEWVSGISWKGDIGGYVDSVKGRFTISRDNEKNSLYLQMNSLRAEDTALYYCVKSYGSGSFYNAFDSWGQGTLVTVSS
VL: DIQMTQSPSTLSASVGDRVTITCRASQKISSWLAWYQQKPGKAPKFLIYKASRLDRGTPSRFSGSGSGTEFSLTISSLQPDDFATYYCLEYSSYIRTFGQGTKVEIK
B5: one-armed (OA) mAb11-1260 (antibody, V domains shown)
VH: EVQLVESGGGLVQPGRSLRLSCAASGFTFHDYAMHWVRQVPGKGLEWVSGISWKGDIGGYVDSVKGRFTISRDNEKNSLYLQMNSLRAEDTALYYCVKSYGSGSFYNAFDSWGQGTLVTVSS
VL: DIQMTQSPSTLSASVGDRVTITCRASQQISSWLAWYQQKPGKAPKFLIYKASRLDRGTPSRFSGSGSGTEFSLTISSLQPDDFATYYCLEYSSYIRTFGQGTKVEIK
B6: one-armed (OA) mAb11-1254 (antibody, V domains shown)
VH: EVQLVESGGGLVQPGRSLRLSCAASGFTFHDYAMHWVRQVPGKGLEWVSGISWKGDIGGYVDSVKGRFTISRDNDKNSLYLQMNSLRAEDTALYYCVKSYGSGSFYNAFDSWGQGTLVTVSS
VL: DIQMTQSPSTLSASVGDRVTITCRASQSISSWLAWYQQKPGKAPKFLIYKASRLDRGTPSRFSGSGSGTEFSLTISSLQPDDFATYYCLEYSSYIRTFGQGTKVEIK
B7: one-armed (OA) mAb11-1091 (antibody, V domains shown)
VH: EVQLVESGGGLVQPGRSLKLSCAASGFTFHDYAMHWVRQVPGKGLEWVSGISWKGDIGGYVDSVKGRFTISRDNAKNSLYLQMNSLRAEDTALYYCAKSYGSGSFYNAFDSWGQGTLVTVSS
VL: DIQMTQSPSTLSASVGDRVTITCRASQSISSWLAWYQQKPGKAPKFLIYKASKLDRGTPSRFSGSGSGTEFTLTISSLQPDDFATYYCLEYSSYIRTFGQGTKVEIK
B8: one-armed (OA) mAb11-1204 (antibody, V domains shown)
VH: EVQLVESGGGLVQPGRSLRLSCAASGFTFHDYAMHWVRQVPGKGLEWVSGISWRGDIGGYVKSVKGRFTISRDNAKNSLYLQMNSLRAEDTALYYCVKSYGSGSFYNAFDSWGQGTLVTVSS
VL: DIQMTQSPSTLSASVGDEVTITCRASQSISSWLAWYQQKPGKAPKFLIYKASKLERGTPSRFSGSGSGTEFSLTISSLQPDDFATYYCLEYSSYIRTFGQGTKVEIK
B9: one-armed (OA) mAb11-1233 (antibody, V domains shown)
VH: EVQLVESGGGLVQPGRSLRLSCAASGFKFHDYAMHWVRQVPGKGLEWVSGISWKGDIGGYVDSVKGRFTISRDNEKNSLYLQMNSLRAEDTALYYCVKSYGSGSFYNAFDSWGQGTLVTVSS
VL: DIQMTQSPSTLSASVGDRVTITCRASQSISSWLAWYQQKPGKAPKFLIYKASRLDRGTPSRFSGSGSGTEFSLTISSLQPDDFATYYCLEYSSYIRTFGQGTKVEIK
B10: one-armed (OA) mAb11-1073 (antibody, V domains shown)
VH: EVQLVESGGGLVQPGRSLRLSCAASGFTFHDYAMHWVRQVPGKGLEWVSGISWKGDIGGYVDSVKGRFTISRDNAKNSLYLQMNSLRAEDTALYYCAKSYGSGSFYNAFDSWGQGTLVTVSS
VL: DIQMTQSPSTLSASVGDRVTITCRASQSISSWLAWYQQKPGKAPKFLIYKASKLDRGTPSRFSGSGSGTEFTLTISSLQPDDFATYYCLEYSSYIRTFGQGTKVEIK
B11: one-armed (OA) mAb11-1021 (antibody, V domains shown)
VH: EVQLVESGGGLVQPGRSLRLSCAASKFTFHDYAMHWVRQAPGKGLEWVSGISWKGDIGGYVDSVKGRFTISRDNAKNSLYLQMNSLRAEDTALYYCAKSYGSGSFYNAFDSWGQGTLVTVSS
VL: DIQMTQSPSTLSASVGDRVTITCRASQSISSWLAWYQQKPGKAPKFLIYKASKLDRGTPSRFSGSGSGTEFTLTISSLQPDDFATYYCLEYSSYIRTFGQGTKVEIK
B12: one-armed (OA) mAb01-9373 (antibody, V domains shown)
VH: EVQLVESGGGLVQPGRSLKLSCAASGFTFHDYAMHWVRQVPGKGLEWVSGISWRGDIIGYVDSVKGRFTISRDNAKNSLYLQLNSLRAEDTALYYCVKSYGSGSFYNAFDSWGQGTLVTVSS
VL: DIQMTQSPSTLSASAGDEVTITCRASKSISSWLAWYQQKPGKAPRFLIYKASRLDRGTPSRFSGSGSGTEFTLTISHLQPDDFATYYCLEYSSYIRTFGQGTKVEIK
B13: one-armed (OA) mAb11-1266 (antibody, V domains shown)
VH: EVQLVESGGGLVQPGRSLRLSCAASGFTFHDYAMHWVRQVPGKGLEWVSGISWKGDIGGYVDSVKGRFTISRDNEKNSLYLQMNSLRAEDTALYYCVKSYGSGSFYNAFDSWGQGTLVTVSS
VL: DIQMTQSPSTLSASVGDRVTITCRASQSISSWLAWYQQKPGKAPKFLIYKASRLDKGTPSRFSGSGSGTEFSLTISSLQPDDFATYYCLEYSSYIRTFGQGTKVEIK
B14: one-armed (OA) mAb11-1024 (antibody, V domains shown)
VH: EVQLVESGGGLVQPGRSLRLSCAASKFTFHDYAMHWVRQAPGKGLEWVSGISWKGDIGGYVDSVKGRFTISRDNAKNSLYLQMNSLRAEDTALYYCAKSYGSGSFYNAFDSWGQGTLVTVSS
VL: DIQMTQSPSTLSASVGDRVTITCRASQSISSWLAWYQQKPGKAPKFLIYKASKLERGTPSRFSGSGSGTEFTLTISSLQPDDFATYYCLEYSSYIRTFGQGTKVEIK
B15: one-armed (OA) mAb11-1039 (antibody, V domains shown)
VH: EVQLVESGGGLVQPGRSLKLSCAASKFTFHDYAMHWVRQAPGKGLEWVSGISWKGDIGGYVDSVKGRFTISRDNAKNSLYLQMNSLRAEDTALYYCAKSYGSGSFYNAFDSWGQGTLVTVSS
VL: DIQMTQSPSTLSASVGDRVTITCRASQSISSWLAWYQQKPGKAPKFLIYKASKLDRGTPSRFSGSGSGTEFTLTISSLQPDDFATYYCLEYSSYIRTFGQGTKVEIK
B16: one-armed (OA) mAb11-1042 (antibody, V domains shown)
VH: EVQLVESGGGLVQPGRSLKLSCAASKFTFHDYAMHWVRQAPGKGLEWVSGISWKGDIGGYVDSVKGRFTISRDNAKNSLYLQMNSLRAEDTALYYCAKSYGSGSFYNAFDSWGQGTLVTVSS
VL: DIQMTQSPSTLSASVGDRVTITCRASQSISSWLAWYQQKPGKAPKFLIYKASKLERGTPSRFSGSGSGTEFTLTISSLQPDDFATYYCLEYSSYIRTFGQGTKVEIK
B17: one-armed (OA) mAb11-1033 (antibody, V domains shown)
VH: EVQLVESGGGLVQPGRSLRLSCAASKFTFHDYAMHWVRQVPGKGLEWVSGISWKGDIGGYVDSVKGRFTISRDNAKNSLYLQMNSLRAEDTALYYCAKSYGSGSFYNAFDSWGQGTLVTVSS
VL: DIQMTQSPSTLSASVGDRVTITCRASQSISSWLAWYQQKPGKAPKFLIYKASKLERGTPSRFSGSGSGTEFTLTISSLQPDDFATYYCLEYSSYIRTFGQGTKVEIK
B18: one-armed (OA) mAb11-0965 (antibody, V domains shown)
VH: EVQLVESGGGLVQPGRSLRLSCAASKFTFHDYAMHWVRQAPGKGLEWVSGISWKGDIGGYADSVKGRFTISRDNAKNSLYLQMNSLRAEDTALYYCAKSYGSGSFYNAFDSWGQGTLVTVSS
VL: DIQMTQSPSTLSASVGDRVTITCRASQSISSWLAWYQQKPGKAPKFLIYKASKLERGTPSRFSGSGSGTEFTLTISSLQPDDFATYYCLEYSSYIRTFGQGTKVEIK
B19: one-armed (OA) mAb11-1094 (antibody, V domains shown)
VH: EVQLVESGGGLVQPGRSLKLSCAASGFTFHDYAMHWVRQVPGKGLEWVSGISWKGDIGGYVDSVKGRFTISRDNAKNSLYLQMNSLRAEDTALYYCAKSYGSGSFYNAFDSWGQGTLVTVSS
VL: DIQMTQSPSTLSASVGDRVTITCRASQSISSWLAWYQQKPGKAPKFLIYKASKLERGTPSRFSGSGSGTEFTLTISSLQPDDFATYYCLEYSSYIRTFGQGTKVEIK
B20: one-armed (OA) mAb11-1262 (antibody, V domains shown)
VH: EVQLVESGGGLVQPGRSLRLSCAASGFTFHDYAMHWVRQVPGKGLEWVSGISWKGDIGGYVDSVKGRFTISRDNEKNSLYLQMNSLRAEDTALYYCVKSYGSGSFYNAFDSWGQGTLVTVSS
VL: DIQMTQSPSTLSASVGDRVTITCRASQSIQSWLAWYQQKPGKAPKFLIYKASRLDRGTPSRFSGSGSGTEFSLTISSLQPDDFATYYCLEYSSYIRTFGQGTKVEIK

human plasma-derived Factor IXa, sequence (P00740 47-191, chain 1 of 2): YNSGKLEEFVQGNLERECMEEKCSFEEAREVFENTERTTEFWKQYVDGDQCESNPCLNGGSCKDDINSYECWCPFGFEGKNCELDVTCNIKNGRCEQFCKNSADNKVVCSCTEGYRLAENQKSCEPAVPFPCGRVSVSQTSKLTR
human plasma-derived Factor IXa, sequence (P00740 227-461, chain 2 of 2): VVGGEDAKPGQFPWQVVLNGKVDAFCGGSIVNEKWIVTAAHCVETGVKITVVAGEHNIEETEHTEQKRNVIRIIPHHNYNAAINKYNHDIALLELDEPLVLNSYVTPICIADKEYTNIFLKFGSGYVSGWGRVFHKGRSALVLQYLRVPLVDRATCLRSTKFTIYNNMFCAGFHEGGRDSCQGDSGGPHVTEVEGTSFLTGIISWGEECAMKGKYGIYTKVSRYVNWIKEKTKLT

This assay has as its target human plasma-derived Factor IXa (human, UniProt P00740 47-191; P00740 227-461). The assay can be described thus: cell-based or functional assay.
Take B1: the “Stimulation Index, FXa generation assay, 800 nM OA antibody” value (shortened to “Stimulation Index … 800 nM OA antibody”) was determined as 3370 fold.
On the same count and under the same terms, the figure for B2 is 5750 fold; for B3 it is 3590 fold.
The same measure, in the same setting: as for B4, the figure is 2000 fold; as for B5, 1760 fold.
As for B6, the “Stimulation Index, FXa generation assay, 760 nM OA antibody” value was 1890 fold.
For the molecule B7, the “Stimulation Index … 800 nM OA antibody” value came to 5400 fold.
With B8, the “Stimulation Index, FXa generation assay, 1600 nM OA antibody” value was determined as 9100 fold.
With B9, the “Stimulation Index … 800 nM OA antibody” value was found to be 1700 fold.
Still for that read-out and setting: the figure for B10 is 6150 fold; for B11 it is 4650 fold.
In the case of B12, the “Stimulation Index, FXa generation assay, 1600 nM OA antibody” value turned out to be 1390 fold.
In the case of B13, the “Stimulation Index … 800 nM OA antibody” value was determined as 1700 fold.
Consider B14, for which the “Stimulation Index … 800 nM OA antibody” value was 3650 fold.
Consider B15, for which the “Stimulation Index … 800 nM OA antibody” value turned out to be 3960 fold.
On the same count and under the same terms, as for B16, the figure is 4320 fold; as for B17, 5130 fold; as for B18, 2860 fold.
Regarding B19, the “Stimulation Index … 800 nM OA antibody” value was 4080 fold.
In the case of B20, the “Stimulation Index … 800 nM OA antibody” value was 1950 fold.
